T1: human BMPR-II extracellular domain (human, UniProt Q13873 32-150, biotinylated at a 1:1 molar stoichiometric ratio using Sulfo-NHS-LC-biotin)
T1 sequence: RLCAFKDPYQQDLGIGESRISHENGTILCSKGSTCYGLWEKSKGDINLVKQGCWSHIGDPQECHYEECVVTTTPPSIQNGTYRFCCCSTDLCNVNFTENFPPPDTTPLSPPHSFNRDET

T2: Noggin (UniProt Q13253 28-232, biotinylated)
T2 sequence: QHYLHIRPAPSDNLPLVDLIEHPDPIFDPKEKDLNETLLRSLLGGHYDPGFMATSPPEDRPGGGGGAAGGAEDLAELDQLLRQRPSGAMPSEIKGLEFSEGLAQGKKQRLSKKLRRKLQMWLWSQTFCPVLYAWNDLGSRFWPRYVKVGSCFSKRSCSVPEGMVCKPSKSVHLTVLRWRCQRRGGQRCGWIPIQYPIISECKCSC


Assays:
Experiment in all cases: SPR
[1] = biological target: T1, human BMPR-II extracellular domain
Noggin = biological target: T2, Noggin
[2] = biological target: human ALK1 extracellular domain (human, UniProt P37023 22-118, biotinylated at a 1:1 molar stoichiometric ratio using Sulfo-NHS-LC-biotin)
human ALK1 extracellular domain, sequence (P37023 22-118): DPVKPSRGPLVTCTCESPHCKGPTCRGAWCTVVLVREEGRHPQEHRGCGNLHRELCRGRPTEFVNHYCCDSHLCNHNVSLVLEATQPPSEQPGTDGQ

| Binder | Kd [1] [nM] | Kd (Noggin) [nM] | Kd [2] [nM] |
| --- | --- | --- | --- |
| BMP9 WT (ligand) SAGAGSHCQKTSLRVNFEDIGWDSWIIAPKEYEAYECKGGCFFPLADDVTPTKHAIVQTLVHLKFPTKVGKACCVPTKLSPISVLYKDDMGVPTLKYHYEGMSVAECGCR | 13.3 | – | – |
| BMP2 WT (ligand) QAKHKQRKRLKSSCKRHPLYVDFSDVGWNDWIVAPPGYHAFYCHGECPFPLADHLNSTNHAIVQTLVNSVNSKIPKACCVPTELSAISMLYLDENEKVVLKNYQDMVVEGCGCR | 66.9 | 1.2 | – |
| BMP9 HB (ligand) MAQAHKHQRKRLKSSCQKTSLRVNFEDIGWDSWIIAPKEYEAYECKGGCFFPLADDVTPTKHAIVQTLVHLKFPTKVGKACCVPTKLSPISVLYKDDMGVPTLKYHYEGMSVAECGCR | 11.6 | – | 5.59 |
